According to the supplement of paper PMC10567573:

B1: KLHDC10 (parent)
chain: PSLLELAWEKLLAAFPNLANLSRT
B2: RHOBTB3 (parent)
chain: VSHVFMLLFNVKSPTDIQDSSIIR

Variants of: B1
Experiment: protein stability index of a GFP-peptide fusion (GPS, HEK-293T) (PSI 1-6); higher = more stable
Conditions: c terminus: a fixed tail appended
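Note: lentivirally expressed fusions sorted by FACS into six bins by GFP to DsRed ratio, PSI derived from sequencing read proportions per bin multiplied by bin number.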

Protein stability index of substitutions, site by site:
P1: F 2.52; A 2.42; T 1.85; Y 1.67; E 3.28; L 2.23; V 2; H 2.21; I 1.92; M 1.94; R 2.12; K 2.79; W 1.8; C 1.86; N 2.17; S 1.85; Q 2.21; D 2.06
S2: P 2.25; K 2.17; D 2.67; Q 1.79; F 2.41; G 1.72; E 2.03; A 2.09; N 1.77; L 2.19; I 1.17; C 1.34; H 1.78; M 1.61

Variants of: B2
Experiment: as above
Conditions: c terminus: a fixed tail appended

Protein stability index: each site, then its substitutions
T15: V 3.4; R 4.51; S 5.07; F 3.38; Y 2.63; I 2.23; W 1.62; K 5.21; L 2.3; N 3.26; C 3.31; G 2.76
K12: T 1.98; C 1.55; L 1.46; R 3.32; I 3.28; Y 1.81; M 3.63; D 2.5; N 1.99; E 1.8; H 2.15; A 5.33; W 4.11; Q 2.78; G 3.36; V 4.26
I22: F 2.15; R 1.6; W 2.17; T 2.35; N 1.66; V 3.37; L 2.98; C 2.08; Q 2.63; D 2.8; Y 2.62; P 3.69
F9: E 2.21; K 2.21; T 1.57; H 1.63; C 2.44; A 1.92; R 2.74; L 3.21; N 1.93; D 1.45; P 1.55; Q 1.5; G 1.69; W 3.94; S 2.61; Y 4.01; I 2.62
S21: K 1.84; C 3.76; F 3.07; T 3.42; M 2.9; Q 4.13; Y 3.45; H 2.35; W 3.54; G 3.46; V 2.27; I 2.74
L8: C 2.23; Q 2.75; P 2.34; N 2.46; S 2.78; D 1.81; G 2.55; M 2.95; H 2.23; K 2.71; E 1.36; F 2.22
D16: E 2.96; R 3.86; N 3.77; F 1.93; S 2.63; L 2.16; C 2.82; H 3.02; A 2.52; Y 3.61; T 2.99; M 3.75
I23: A 4.9; H 2.28; L 5.03; E 1.89; F 4.66; T 2.43; N 4.01; W 2.86; Y 3.9; D 2.83; M 4.19; P 1.33; K 1.4; G 2.5; S 2.33; R 2.85; Q 2.79; V 2.75
S20: I 2.98; F 2.79; R 1.66; P 3.04; H 2.49; Y 2.66; Q 3.34; T 2.05; K 1.33; D 2.91; W 3.16; M 3.1; A 2.66
L7: F 3.17; N 2.25; M 2.37; K 1.59; P 2.18; W 2.9; C 2.94; Y 2.77; H 3.82; E 2.13; Q 2.23; D 1.93; V 2.34; G 2.25; A 1.74; I 2.99; T 2.73; S 1.72; R 2.4
N10: I 2.19; L 3.27; T 2.15; P 2.3; C 1.43; W 3.77; D 3.9; V 2.13; H 3.06; G 2.24; A 2.47
S13: D 2.36; I 4.29; T 3.82; Y 2.31; K 2.17; L 3.37; M 3.52; C 4.63; H 2.37; E 2.99; F 3.32
V4: P 2.12; Q 3.13; G 2.28; Y 1.61; F 4.42; T 2.54; E 1.3; K 1.97; C 4.79; S 1.89; D 2.16; M 2.52; R 3.04; N 1.19; W 2.46
F5: Y 3.79; Q 1.95; H 2.29; N 1.97; A 1.5; C 2.99; K 1.84; S 1.95; P 2.04; T 1.71; D 2.29; V 3.38; L 4.65; R 1.41; I 2.31; M 1.44; E 2.3; G 1.19
P14: K 2.58; W 3.15; F 3.75; Y 3.96; M 1.72; G 4.07; H 2.54; V 3.52; S 3.49; D 2.34; C 5.86; L 2.04; A 3.26; I 3.62; E 2.14
R24: E 2.74; N 3.13; S 3.05; W 4.43; T 3.31; K 3.56; V 3.67; G 3.07; F 1.82; Q 4.67; L 2.66; H 3.13; Y 2.58
D19: F 2.28; K 2.3; P 2.41; S 2.93; L 1.89; A 3.48; T 3.05; M 4.57; I 3.28; E 3.13; N 2.96; R 3.06; Q 2.96; H 3.04
M6: R 1.77; C 1.98; T 2.99; E 2.43; I 2.83; V 3.62; L 3.66; N 2.98; D 2.26; Q 2.24; Y 3.18; P 1.59; S 2.2; G 2.29; K 1.42; F 3.03; H 2.87; A 3
H3: W 3.07
Q18: C 2.77; H 2.48; S 3.12; W 3.42; Y 3.89; P 3.69; D 4.62; F 2.75; A 3.32; E 2.79; N 1.19; T 2.57; V 3.53; K 2.82
I17: S 1.18; T 2.71; E 1.9; W 3.63; C 3.7; H 2.01; N 2.1; P 2.88; Q 1.58; L 2.92; R 3.58; V 2.81; Y 1.66; K 1.51
V11: S 3.03; Q 1.82; W 2.83; D 1.23; P 2.94; F 2.74; R 3.03; L 4.23; C 3.03; H 3.04; I 3.24; N 3.13; E 2.08; M 3.81; G 3.8
